Experimental data taken from paper PMC5686756, “IKKγ-Mimetic Peptides Block the Resistance to Apoptosis Associated with Kaposi's Sarcoma-Associated Herpesvirus Infection” (Journal of Virology, 2017).

Legend:
[1] = system: ks-vFLIP; details: IKKγ(150–272) at 30 μM; 30 μM ks-vFLIP unless otherwise stated, SYPRO orange; repeated at least 3 times
Experimental: To achieve this, an unmodified 30-mer peptide (residues 224 to 253) was designed to encompass the interacting motif and neighboring residues along with a 21-mer (residues 226 to 248), only marginally longer than the motif itself (residues 230 to 248 [Fig. 2B]). These were commercially synthesized and their ability to associate with ks-vFLIP was assessed using a thermofluor assay (Fig. 2C and D).
Thermofluor studies were conducted using the MyIQ reverse transcription-PCR (RT-PCR) system (Bio-Rad) in a 96-well plate format. Trials were performed in which 30 μM ks-vFLIP (unless otherwise stated) was combined with either IKKγ or mimetic peptides (at the specified concentrations) prior to the addition of SYPRO orange diluted in a 1:1,000 (vol/vol) ratio and thermal denaturation. The data were subsequently processed using the Bio-Rad iQ5 software. Each experiment was repeated at least 3 times.

[2] = molecular target: T1, GB1–ks-vFLIP (Human herpesvirus 8 type P, UniProt F5HEZ4); assay: biochemical; format: binding, Kaposi's sarcoma-associated herpesvirus
T1 construct: ks-vFLIP (residues 1 to 188) was PCR cloned into the EcoRI and XhoI sites of GB1-pBR22b; 6His (C); made in house; host or cells: E. coli BL21(DE3)
Experimental: We next sought to assess the affinity of spIKKγ for vFLIP using isothermal calorimetry (ITC).
Isothermal calorimetry (ITC) experiments were performed using a Microcal VP-ITC micocalorimeter (MicroCal). For all binding reactions, syringe concentrations varied between ∼85 and 100 μM for IKKγ(150–272) and cell concentrations between ∼8 and 10 μM for GB1-vFLIP. Titrations consisted of an initial 2-μl injection, followed by 20 10-μl injections with stirring at 300 rpm. In competition assays, GB1–ks-vFLIP was first incubated with 20 μM spIKKγ and DMSO to 4% prior to loading into the cell and titration with IKKγ(150–272). All ITC binding experiments were performed in deionized water at 25°C owing to the buffer constraints of spIKKγ, GB1–ks-vFLIP, and IKKγ(150–272), where GB1–ks-vFLIP and IKKγ(150–272) were buffer matched by overnight dialysis, followed by the addition of 4% DMSO to each. […] Following collection, all data were analyzed using ORIGIN 70 software and fitted to a one-site binding model with each experiment performed at least in triplicate.

[3] = system: IKKγ; assay: Thermofluor assay, thermal denaturation of IKKγ alone; format: physicochemical; details: various concentrations, SYPRO orange
Description: FIG 2 vFLIP-IKKγ interaction and peptide thermofluor analysis. (A) (Left) Cartoon depiction of the ks-vFLIP–IKKγ heterotetramic complex (PDB code 3CL3). The IKKγ and ks-vFLIP monomers are shown in gray and wheat, respectively. (Right) The ks-vFLIP-IKKγ dimer interface highlighting cleft 1 (white) and cleft 2 (cyan). Residues essential for the formation of the cleft 1 interactions (H235, F238, D242, and K246) are colored magenta, and those that interact with cleft 2 (Q236 and E240) are colored blue. (B) IKKγ ks-vFLIP minimal interacting motif (residues 230 to 248) together with those forming the 30- and 21-mer peptides (pink and violet, respectively) used in the thermofluor studies. (C) Thermal denaturation profiles for ks-vFLIP (left) and IKKγ (right) at various concentrations. […] (D) Thermal denaturation of ks-vFLIP in the presence of various concentrations of IKKγ (left) and the 21-mer (pink) and 30-mer (violet) (right) peptides.
Each experiment was repeated at least 3 times. All peptides were purchased from Eurogentec.

T1 sequence (F5HEZ4 whole entry, the tested form may be a part): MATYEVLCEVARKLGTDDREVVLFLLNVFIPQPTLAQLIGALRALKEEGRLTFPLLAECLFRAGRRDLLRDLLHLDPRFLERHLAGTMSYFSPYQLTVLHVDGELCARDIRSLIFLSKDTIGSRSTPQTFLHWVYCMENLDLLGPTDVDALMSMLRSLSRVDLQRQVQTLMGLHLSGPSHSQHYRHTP

B1: IKKγ(150–272): IKKγ fragment encompassing residues 150 to 272 (protein)
chain: LGELQESQSRLEAATKECQALEGRARAASEQARQLESEREALQQQHSVQVDQLRMQGQSVEAALRMERQAASEEKRKLAQLQVAYHQLFQEYDNHIKSSVVGSERKRGMQLEDLKQQLQQAEE
shift in melting temperature of ks-vFLIP [1]: ~8 °C
apparent dissociation constant (Kd) of the vFLIP-IKKγ interaction in the presence of peptide ([2]; GB1–ks-vFLIP preincubated with 20 μM spIKKγ, 4% DMSO, deionized water, 25°C, at least triplicate): 30 µM
binding affinity for ks-vFLIP, spIKKγ compared with IKKγ(150–272) ([2]; ITC): nearly equivalent binding affinities
thermal denaturation response of IKKγ [3]: lack of a significant response
